# Test results as given in patent US20050048070A1 (published 2005).
# T1: K8(1-85)/K18(1-187) heterotypic complex (human, UniProt P05787 2-86; P05783 2-188)
# T1 construct: Heterotypic complex of two GST fusion proteins; not shown: glutathione S-transferase (GST) fusion partner, modified pGEX-2T vector
# T1 chain 1: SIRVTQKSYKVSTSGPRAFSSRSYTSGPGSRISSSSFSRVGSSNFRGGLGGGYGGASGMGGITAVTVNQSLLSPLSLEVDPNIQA
# T1 chain 2: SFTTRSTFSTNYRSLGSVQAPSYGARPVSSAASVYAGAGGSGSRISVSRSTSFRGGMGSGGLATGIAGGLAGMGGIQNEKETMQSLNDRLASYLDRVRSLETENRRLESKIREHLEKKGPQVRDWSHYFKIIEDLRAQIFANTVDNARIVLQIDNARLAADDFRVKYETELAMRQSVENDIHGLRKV
# T2: K8(1-85)/intact K18 heterotypic complex (human, UniProt P05787 2-86; P05783 2-430)
# T2 construct: Heterotypic complex of two GST fusion proteins; also called intact K8(1-85)/intact K18; not shown: glutathione S-transferase (GST) fusion partner, modified pGEX-2T vector
# T2 chain 1: T1 chain 1
# T2 chain 2: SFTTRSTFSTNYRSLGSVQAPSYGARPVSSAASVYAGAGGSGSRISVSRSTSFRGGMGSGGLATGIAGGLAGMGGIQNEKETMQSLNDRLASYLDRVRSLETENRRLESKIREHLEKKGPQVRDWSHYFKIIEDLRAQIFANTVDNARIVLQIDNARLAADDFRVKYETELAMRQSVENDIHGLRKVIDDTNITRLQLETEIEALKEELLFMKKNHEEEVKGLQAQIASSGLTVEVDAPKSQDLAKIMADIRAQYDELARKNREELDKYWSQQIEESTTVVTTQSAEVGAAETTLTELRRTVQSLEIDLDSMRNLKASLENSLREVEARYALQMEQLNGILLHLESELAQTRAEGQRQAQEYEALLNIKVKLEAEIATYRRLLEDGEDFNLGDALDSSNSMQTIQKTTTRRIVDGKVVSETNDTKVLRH
# T3: K8(300-483)/intact K18 heterotypic complex
# T3 construct: one member of the group m25; not shown: N-terminal GST carrier (modified pGEX-2T) and its linker on the keratin constructs
# T3 chain 1: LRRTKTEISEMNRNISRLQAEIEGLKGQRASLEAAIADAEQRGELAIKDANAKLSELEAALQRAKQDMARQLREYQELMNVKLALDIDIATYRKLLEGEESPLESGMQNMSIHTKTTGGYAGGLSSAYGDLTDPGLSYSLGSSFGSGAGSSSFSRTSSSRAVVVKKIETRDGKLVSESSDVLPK
# T3 chain 2: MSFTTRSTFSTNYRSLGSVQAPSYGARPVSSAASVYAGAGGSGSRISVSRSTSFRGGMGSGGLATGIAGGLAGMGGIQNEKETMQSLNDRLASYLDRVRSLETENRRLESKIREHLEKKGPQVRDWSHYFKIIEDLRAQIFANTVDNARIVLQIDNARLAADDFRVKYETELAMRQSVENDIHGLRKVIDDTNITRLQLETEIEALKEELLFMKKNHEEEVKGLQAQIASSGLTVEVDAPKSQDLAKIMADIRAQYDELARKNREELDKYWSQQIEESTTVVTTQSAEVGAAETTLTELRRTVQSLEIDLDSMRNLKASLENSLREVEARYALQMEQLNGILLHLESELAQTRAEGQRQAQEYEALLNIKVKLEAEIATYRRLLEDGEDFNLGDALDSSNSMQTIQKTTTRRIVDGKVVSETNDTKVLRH
# T4: K8(240-483)/intact K18 heterotypic complex
# T4 construct: one member of the group m25; not shown: N-terminal GST carrier (modified pGEX-2T) and its linker on the keratin constructs
# T4 chain 1: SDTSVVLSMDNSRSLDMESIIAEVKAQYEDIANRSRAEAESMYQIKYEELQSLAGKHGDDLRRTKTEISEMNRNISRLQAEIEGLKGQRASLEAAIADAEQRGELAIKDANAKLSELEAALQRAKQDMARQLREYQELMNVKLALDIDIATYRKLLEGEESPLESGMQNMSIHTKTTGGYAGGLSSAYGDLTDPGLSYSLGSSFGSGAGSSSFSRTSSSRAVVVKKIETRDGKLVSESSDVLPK
# T4 chain 2: T3 chain 2
# T5: K8(343-483)/intact K18 heterotypic complex
# T5 construct: one member of the group m25; not shown: N-terminal GST carrier (modified pGEX-2T) and its linker on the keratin constructs
# T5 chain 1: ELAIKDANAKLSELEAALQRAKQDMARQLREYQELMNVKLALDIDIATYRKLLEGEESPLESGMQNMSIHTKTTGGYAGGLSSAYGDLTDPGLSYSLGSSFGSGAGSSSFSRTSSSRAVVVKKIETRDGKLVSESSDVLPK
# T5 chain 2: T3 chain 2
# T6: intact K8/intact K18 heterotypic complex (recombinant GST fusion proteins) (human, UniProt P05787 2-483; P05783 2-430)
# T6 construct: Heterotypic complex of two GST fusion proteins; also called intact K8/K18 complex; not shown: glutathione S-transferase (GST) fusion partner, modified pGEX-2T vector
# T6 chain 1: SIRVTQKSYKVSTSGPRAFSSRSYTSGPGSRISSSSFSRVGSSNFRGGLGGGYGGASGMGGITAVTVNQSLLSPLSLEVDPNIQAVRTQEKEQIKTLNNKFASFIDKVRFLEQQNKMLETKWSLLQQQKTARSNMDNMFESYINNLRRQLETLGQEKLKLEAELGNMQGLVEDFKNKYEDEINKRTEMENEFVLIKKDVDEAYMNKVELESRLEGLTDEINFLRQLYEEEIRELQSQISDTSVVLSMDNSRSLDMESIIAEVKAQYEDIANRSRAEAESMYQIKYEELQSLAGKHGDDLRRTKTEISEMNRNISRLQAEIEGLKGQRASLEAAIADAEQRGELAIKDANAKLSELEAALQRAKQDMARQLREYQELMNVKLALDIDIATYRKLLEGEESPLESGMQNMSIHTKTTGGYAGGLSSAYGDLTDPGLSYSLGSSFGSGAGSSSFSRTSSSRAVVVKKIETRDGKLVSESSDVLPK
# T6 chain 2: T2 chain 2
# B1: human monoclonal IgM antibody COU-1 (antibody, V domains shown)
# VH: GAEVKKPGASVKVSCKASDYTFSSYYMHWVRQAPGQGLEWMGIINPSGGSTSYAQKFQGRVTMTRDTSTNTVYMELSSLRSEDTAVYYCARDQVVVAATLSNYGMDVWGQGTTVTVSS
# VL: ELTQSPGTLSLSPGERATLSCRASQSVSSSYLAWYQQKPGQAPRLLIYDASNRATGIPARFSGSGSGTDFTLTISSLEPEDFAVYYCQQGTNWGIAFGQGTRLDIKR
# notes: Human IgM with kappa light chain, secreted by hybridoma B9165 (ECACC 87040201), purified from culture supernatant; also called HMab COU-1; HuMab COU-1
# Legend:
# [1] = biological target: T1, K8(1-85)/K18(1-187) heterotypic complex; experiment: heterotypic association assay: blotted K8 proteins incubated with purified K18(1-187), then stained with COU-1
# Method: Panels of different C- or N-terminal-deleted or intact K8 and K18 proteins were separated by SDS-PAGE and transferred to a PVDF membrane, as described above. After blocking, the membrane was incubated for 16 h at 4° C. with 100 μg/ml of purified K8 or K18 protein in PBS, 2% BSA and 4 M urea; if K8 proteins were transferred to the membrane, the membrane was subsequently incubated with a purified K18 protein, and vice versa (38).
# [2] = biological target: T2, K8(1-85)/intact K18 heterotypic complex; experiment: summary map of the heterotypic association assay: GST deletion protein incubated with the complementary keratin, then stained with COU-1
# [3] = biological target: T3, K8(300-483)/intact K18 heterotypic …; experiment: as above
# [4] = biological target: T4, K8(240-483)/intact K18 heterotypic …; experiment: as above
# [5] = biological target: T5, K8(343-483)/intact K18 heterotypic …; experiment: as above
# [6] = biological target: T6, intact K8/intact K18 heterotypic …; experiment: SPR (BIAcore), complex immobilized, COU-1 injected
# Method: The sensor chip was activated for immobilization with N-hydroxysuccinimide and N-ethyl-N′-(3-diethyl aminopropyl) carbodiimide. The heterotypic cytokeratin complexes were coupled to the surface by injection of 50 μl of a 50 μg/ml sample. Excess activated esters were quenched with 30 μl 1 M ethanolamine, pH 8.5. Typically, 3000 resonance units were immobilized. […] The association was monitored as the increase in resonance units per unit time. Dissociation measurements were obtained following the end of the association phase with a flow rate of 20 μl/min. The binding surface was regenerated with 10 mM HCl, 1M NaCl, pH 2.0, and remained active for 10 measurements. The association and dissociation rate constants, kₒₙ and koff, were determined from a series of measurements, as described previously (39). Association and dissociation constants were deduced from kinetic data using the Bioevaluation program version 3.1 (Pharmacia).
binder,measurement,setting,value
B1,binding result,[1],no binding (tested: 5 µg/ml COU-1 (P-0285))
same,binding result,[2],no binding (tested: 5 µg/ml COU-1 (P-0285))
same,binding result,[3],no binding (tested: 5 µg/ml COU-1 (P-0285))
same,binding result,[4],no binding (tested: 5 µg/ml COU-1 (P-0285))
same,binding result,[5],no binding (tested: 5 µg/ml COU-1 (P-0285))
same,Ka,[6],1.8e+07 M⁻¹
same,Kd,[6],55 nM
same,fold lower binding than to the truncated complexes,[6],~100 fold
same,koff,[6],0.0005 s⁻¹
same,kon,[6],9100 M⁻¹ s⁻¹
